Experimental data published in paper PMC4012616.

Assays:
Assay in all cases: MST
[1] = biological target: H3K9me1 MLA (Methyl Lysine Analog) histone H3 (UniProt P84233)
[2] = biological target: H3K9me2 MLA (Methyl Lysine Analog) histone H3 (UniProt P84233)
[3] = biological target: H3K9me3 MLA (Methyl Lysine Analog) histone H3 (UniProt P84233)

Kd [1]: 6.14 µM
Kd [2]: 2050 nM
Kd [3]: 157 nM
Substance: EAP-1 chromodomain fused to GST (EAP-1chromo) (domain or fragment)
